Experimental data published in patent publication US7625707B2, “Antibacterial agents and methods of identifying and utilizing same” (Ramot At Tel Aviv University Ltd., priority 2003, dated 2009).

What was measured:
[1] = target: T1, GST-YoeB fusion protein (Escherichia coli, UniProt P69348); assay: Peptide array analysis of YefM tridecamer peptides probed with GST-YoeB; format: binding, E. coli
T1 construct: made in house; host or cells: E. coli BL21(DE3) pLysS
T1 sequence (P69348 1-84): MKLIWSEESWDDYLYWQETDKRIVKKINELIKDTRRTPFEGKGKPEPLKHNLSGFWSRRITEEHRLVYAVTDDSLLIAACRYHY
Description: Peptide array analysis: Tridecamer peptides corresponding to consecutive overlapping sequences of the YefM polypeptide were arrayed on a cellulose membrane matrix and covalently bound to a Whatman 50 cellulose support (Whatman). Approximately 50 μg aliquots of soluble GST-YoeB fusion were examined for their selective peptide binding ability, on the basis of YefM-YoeB putative interaction.
For low stringency binding the cellulose membrane was briefly washed in 100% ethanol, washed three times with Tris-buffered saline (TBS; 50 mM Tris-HCl pH 7.5, 150 mM NaCl), then blocked for 4 hours using 5% (w/v) non-fat milk in TBS. The membrane was then washed three times in TBS+0.1% (v/v) tween 20 (TBS-T) and incubated with 10 ml GST-YoeB solution at 4° C. and slow shaking for 14 hours.
For high stringency binding the washing steps were extensive and multiple and the blocking solution washing step was reduced to a single brief wash.
Following incubation, the membrane was washed once in TBS-T then supplemented with 10 ml suspension comprising TBS, mouse anti-GST antibody and horseradish peroxidase conjugated goat anti-mouse antibody in the appropriate titers. Following 1 hour incubation at room temperature the membrane was briefly washed with TBS-T and TBS. Bound GST-YoeB proteins were detected through an enhanced chemiluminescence reaction following an exposure to a sensitive film.

[2] = tested on: E. coli TOP10; assay: Colony formation analysis of bacteria overexpressing YefM, YoeB or both; details: L-arabinose 0.0005-0.2% on LB-Amp agar, 37° C., 20 hours
Description: (§1) The generated constructs were introduced to E. coli strain TOP10.
Colony formation analysis: E. coli TOP10 bacteria harboring pBAD-yefM, pBAD-yoeB, or pBAD-yefMyoeB, were cultured in LB-Amp and incubated at 37° C. overnight Following incubation the cultures were diluted to an A600 of 0.01 in a fresh LB-Amp and incubated at 37° C. until an absorbance of 0.5 at A600 was reached. The cultures were then diluted in ten-fold dilutions steps and applied as 5 μl droplets on LB-Amp agar plates containing L-arabinose at a concentration gradient of 0.2%, 0.1%, 0.05%, 0.02%, 0.005% and 0.0005%. An LB-Amp agar plate containing 0.2% glucose was used as a negative control. All plates were incubated at 37° C. for at least 20 hours.

[3] = tested on: E. coli TOP10; assay: Growth rate analysis of bacteria overexpressing YefM, YoeB or both; details: 0.2% L-arabinose induction compared with 0.2% glucose control, LB-Amp, 37° C.
Description: as §1
Growth rate analysis: E. coli TOP10 bacteria transformed with pBAD-yefM, pBAD-yoeB, and pBAD-yefMyoeB were cultured in LB broth supplemented with 100 μg/ml ampicillin (LB-Amp) and incubated at 37° C. overnight. Following incubation, cultures were diluted in fresh LB-Amp and their optical density was adjusted to approximately 0.01 (A600). Each culture was then divided into two equal volumes. One volume was supplemented with 0.2% L-arabinose to induce expression of the target gene and the second volume was supplemented with 0.2% D-glucose to suppress expression. All cultures were incubated at 37° C. and 200 rpm for up to 9 hours. Cell density was estimated periodically by optical absorbance at 600 nm. The effect of target gene induction on bacterial growth during the logarithmic growth phase was determined as described above with the exception that cultures were divided and supplemented with 0.2% L-arabinose, or 0.2% D-glucose at the time they had reached optical density of approximately 0.45 (A600).

[4] = boiled 10 minutes, supernatant (FIG. 4D)
[5] = Thermal denaturation monitored by CD ellipticity at 222 nm; format: physicochemical; details: PBS pH 7.3
Description: Circular Dichroism (CD): CD spectra were obtained by using an AVIV 202 spectrapolarimeter equipped with temperature-controlled sample holder and a 5 mm path length cuvette. Mean residual ellipticity, [θ], was calculated as, [θ]=[100×θ×m]/[c×L]
The identity of YefM and YoeB-His was verified using protein spots isolation from Coomassie blue stained gels and was accomplished by mass spectrometry, according to established protocols (Bandow, J. E., Becher, D., Buttner, K, Hochgrafe, F., Freiberg, C., Brotz, H. and Hecker, M. (2003) Proteomics. 3, 299-306). Briefly, protein spots were excised from stained gels and the gel pieces were treated trypsin solution (Pomega) for 16 h at 37° C. Peptides were extracted from gel onto a sample plate for MALDI-MS. Obtained peptides masses were determined in the positive ion reflector mode in a Voyager-DE STR mass spectrometer (Applied Biosystems). […] To determine the concentrations of YoeB-His and YefM polypeptides, tyrosine and tryptophan absorbance measurements in 0.1 M KOH were used. YefM concentration was calculated using the extinction coefficient of 2381 M^−1 cm^−1 at 293.2 nm for single tyrosine (4 tyr). YoeB-His concentration was calculated using extinction coefficient at 280 nm of 1507 M^−1 cm^−1 for single tyrosine (6 tyr) and 5377 M^−1 cm^−1 for single tryptophan (4 trp). […]

Molecule: CC[C@H](C)[C@H](NC(=O)[C@@H](NC(=O)[C@@H](N)CCCNC(=N)N)[C@@H](C)O)C(=O)N[C@@H](CO)C(=O)N[C@@H](Cc1ccc(O)cc1)C(=O)N[C@@H](CO)C(=O)N[C@@H](CCC(=O)O)C(=O)N[C@@H](C)C(=O)N[C@@H](CCCNC(=N)N)C(=O)N[C@@H](CCC(N)=O)C(=O)N[C@@H](CC(N)=O)C(=O)N[C@@H](CC(C)C)C(=O)N[C@@H](CO)C(=O)O [YefM11-23]
- binding of YoeB-GST to arrayed tridecamer peptide ([1]; high stringency, single amino-acid shift between peptides (FIG. 6B)): best binding
- binding of YoeB-GST to arrayed tridecamer peptide ([1]; low stringency, two amino-acids shift between peptides (FIG. 6A)): positively identified

B1: YefM: E. coli antitoxin polypeptide, 92 amino acids, SEQ ID NO: 76, natively unfolded (protein, listed as Escherichia coli)
chain: MNCTKEEIDMRTISYSEARQNLSATMMKAVEDHAPILITRQNGEACVLMSLEEYNSLEETAYLLRSPANARRLMDSIDSLKSGKGTEKDIIE
- bacterial colony formation on overexpression [2]: inhibited
- growth of bacteria overexpressing the polypeptide [3]: substantially reduced
- solubility during boiling [4]: extraordinary solubility

B2: YoeB: E. coli toxin polypeptide, SEQ ID NO: 77 (protein, listed as Escherichia coli)
chain: T1 sequence (P69348 1-84)
- bacterial colony formation on overexpression [2]: inhibited
- growth of bacteria overexpressing the polypeptide [3]: substantially reduced

B3: YoeB-His: YoeB toxin expressed in fusion to myc-epitope and his-tag (protein)
chain: T1 sequence (P69348 1-84)
modifications: left off: small tags and cut ends
- polypeptide melting point (TM) [5]: approximately 60 °C

B4: YefM and YoeB: toxin-antitoxin pair co-overexpressed in E. coli TOP10 from pBAD-yefMyoeB (protein, UniProt P69346 1-83; P69348 1-84, looked up)
Antitoxin YefM: MRTISYSEARQNLSATMMKAVEDHAPILITRQNGEACVLMSLEEYNSLEETAYLLRSPANARRLMDSIDSLKSGKGTEKDIIE
Toxin YoeB: T1 sequence (P69348 1-84)
- bacterial colony formation on overexpression [2]: unaffected
- growth of bacteria overexpressing the polypeptide [3]: remained normal
